One block for each binder: values may come before it.
Columns and labels:
[1] = target: human LGN TPR domain, residues 1-350, FLAG-tagged (and a GFP-tagged copy) (human); assay: co-IP; HEK293T co-transfected with FLAG-LGN^TPR, GFP-LGN^TPR and GFP-Insc^ASYM-ΔαB; anti-FLAG M2 sepharose beads, modified JS buffer, 1 h at 4 °C
[2] = target: human LGN TPR domain, fragment 15-350 (human); assay: SEC; purified co-expressed complexes on a size-exclusion column with globular markers, Coomassie SDS-PAGE of peak fractions

Chain of human LGN TPR domain, residues 1-350, FLAG-tagged (and a GFP-tagged copy) (human) (P81274 1-350): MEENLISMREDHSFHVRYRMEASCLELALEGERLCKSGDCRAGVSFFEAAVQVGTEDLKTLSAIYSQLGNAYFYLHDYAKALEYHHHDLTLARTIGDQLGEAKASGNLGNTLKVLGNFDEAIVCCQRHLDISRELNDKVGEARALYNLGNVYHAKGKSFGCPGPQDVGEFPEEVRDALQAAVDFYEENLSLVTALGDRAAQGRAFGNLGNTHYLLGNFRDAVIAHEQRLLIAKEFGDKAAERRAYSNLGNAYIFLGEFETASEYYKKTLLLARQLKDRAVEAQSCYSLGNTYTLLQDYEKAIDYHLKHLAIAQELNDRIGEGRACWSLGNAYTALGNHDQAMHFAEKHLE

- stoichiometry N (Insc per LGN (1:1)) [1]: 1
B1: human GFP-Insc^ASYM-ΔαB (Insc^ASYM lacking residues 62-191) (domain or fragment)
chain: MMALPGGRHLDSVTLPGQRLHLMQVDSVQRWMEDLKLMTECECMCVLQAKPISLEEDAQGDVQALVRKIDASDNIYTTESTTGNLFSLTQEGAPLCRIIAKEGGVVALFKVCRQDSFRCLYPQALRTLASICCVEEGVHQLEKVDGVLCLADILTDNSHSEATRAEAAAVVAQVTSPHLPVTQHLSS

- stoichiometry N (Insc per LGN (2:2)) [2]: 1
B2: human 6His-tagged full-length Insc (residues 1-532) (natural protein)
chain: MMALPGGRHLDSVTLPGQRLHLMQVDSVQRWMEDLKLMTECECMCVLQAKPISLEEDAQGDLILAGGPGPGDPLQLLLKRGWVISTELRRIGQKLAQDRWARVHSMSVRLTCHARSMVSEYSAVSRNSLKEMGEIEKLLMEKCSELSAVTERCLQVENEHVLKSMKACVSETLSMLGQHFGQLLELALTREVQALVRKIDASDNIYTTESTTGNLFSLTQEGAPLCRIIAKEGGVVALFKVCRQDSFRCLYPQALRTLASICCVEEGVHQLEKVDGVLCLADILTDNSHSEATRAEAAAVVAQVTSPHLPVTQHLSSFLESMEEIVTALVKLCQEASSGEVFLLASAALANITFFDTMACEMLLQLNAIRVLLEACSDKQRVDTPYTRDQIVTILANMSVLEQCASDIIQENGVQLIMGMLSEKPRSGTPAEVAACERVQQKAAVTLARLSRDPDVAREAVRLSCMSRLIELCRSPSERNSSDAVLVACLAALRRLAGVCPEGLQDSDFQQLVQPRLVDSFLLCSNMEESFV
